In patent publication US20110223176A1 (AbbVie / Abbott, published 2011):

Legend:
[1] = biological target: T1, human BSG2 (basigin isoform 2) on the cell surface (human, UniProt P35613 140-385); test: flow cytometry (FACS) on BAF3 cells expressing human BSG2
T1 construct: Presented on stably transfected BAF3 cells or endogenously on human tumor cell lines (HepG2, MiaPaCa-2, DoHH-2); also called hBSG2; CD147
T1 sequence: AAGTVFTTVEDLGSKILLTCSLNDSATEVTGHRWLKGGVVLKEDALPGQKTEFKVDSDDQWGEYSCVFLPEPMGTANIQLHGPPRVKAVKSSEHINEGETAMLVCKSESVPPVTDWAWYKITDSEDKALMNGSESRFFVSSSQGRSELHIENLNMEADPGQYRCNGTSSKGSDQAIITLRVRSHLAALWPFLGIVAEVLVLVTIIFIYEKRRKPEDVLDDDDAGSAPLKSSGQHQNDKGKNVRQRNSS
Protocol: (§1) Stable cell lines overexpressing cell-surface BSG2 or human tumor cell lines were harvested from tissue culture flasks, washed three times and resuspended in phosphate buffered saline (PBS) containing 1% bovine serum albumin and 1 mM CaCl₂ (FACS buffer). 5×10⁵ cells were incubated with antibodies at various concentrations in FACS buffer for 60 minutes on ice. Cells were washed twice and the bound murine monoclonal antibody was detected with a goat Fab′2 anti-mouse IgM+IgG+IgA (H+L) R-phycoerythrin-conjugated antibody (Southern Biotechnology Associates, Inc., Birmingham, Ala., Catalog No. 1012-08) diluted 1:500. Following incubation on ice (4° C., 60 minutes), cells were washed three times and resuspended in FACS buffer. Fluorescence was measured using a Becton Dickinson FACSCalibur-HTS (Becton Dickinson, San Jose, Calif., US). Data were analyzed using Graphpad Prism software and EC₅₀ values were reported as the concentration of antibody to achieve 50% of maximal BSG2 antibodies binding to BSG2 expressing cells.

[2] = biological target: T2, cynomolgus monkey BSG2 on the cell surface (cynomolgus monkey); test: flow cytometry (FACS) on BAF3 cells expressing cynomolgus BSG2
T2 construct: whole, on cells; also called BAF3-cyno BSG2; Cyno BSG2
Protocol: as §1

[3] = biological target: T1, human BSG2 (basigin isoform 2) on the …; test: cell-based ECL (MSD) binding on whole cells expressing human BSG2
[4] = biological target: T3, purified recombinant human BSG2 extracellular domain (human, UniProt P35613 22-325); test: SPR (Biacore), mAb captured by anti-mouse Fc, BSG2 ECD injected, 25 C
T3 construct: also called Human BSG2 ECD
T3 sequence: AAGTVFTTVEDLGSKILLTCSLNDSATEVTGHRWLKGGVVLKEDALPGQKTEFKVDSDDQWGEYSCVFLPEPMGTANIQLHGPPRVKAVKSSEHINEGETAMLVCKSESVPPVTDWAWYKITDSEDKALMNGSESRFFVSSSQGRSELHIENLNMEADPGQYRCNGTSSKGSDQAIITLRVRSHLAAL
Protocol: (§2) Binding of BSG2 antibodies to a purified recombinant BSG2 extracellular domain (ECD) was determined by surface plasmon resonance-based measurements with a Biacore® instrument (either a Biacore 2000, Biacore 3000, or Biacore T100; GE Healthcare, Piscataway, N.J., US). The assay format for mAb affinity analysis was Fc-based capture via immobilized anti-Fc IgG. A standard amine coupling protocol was employed to immobilize Fc-specific IgG via primary amines to the carboxy-methyl (CM) dextran surface of CMS sensorchips. For the study of mouse anti-human BSG2 mAbs, anti-mouse Fc was used as the immobilized capture reagent. An automated protocol, available on the Biacore 2000, was used to immobilize 8000-10000RU of capture reagent in all 4 flowcells of the sensorchip. Binding was recorded as a function of time and kinetic rate constants were calculated. In this assay, on-rates as fast as 10⁷M⁻¹ s⁻¹ and off-rates as slow as 10⁻⁵ s⁻¹ can be measured.
(§3) Briefly, the CM-dextran surfaces were activated by freshly prepared 1:1 […] 3-(N,N-dimethylamino)propyl-N-ethylcarbodiimide (EDC). Then the anti-Fc IgG capture reagent (20 μg/ml in 10 mM sodium acetate, pH 4.5) was applied to the surface followed by deactivation of the surface and blocking of the residual reactive sites with 1M ethanolamine (pH 8.5). The running buffer employed was PBS-PB [1×PBS (Sigma P3813), pH 7.4, 0.005% P20 surfactant, 0.1 mg/ml BSA (Sigma-A7906)] and the assay temperature was 25° C. All reagents were diluted into running buffer to the specified concentrations. Each experimental cycle consisted of the following steps: (1) anti-BSG2 mAbs at 0.5 to 1 μg/ml were captured in flowcells 2, 3 or 4 to a level of 100-120RU. All measurements were referenced against flowcell 1 which had no captured anti-BSG2 mAb; (2) human BSG2 ECD was injected through all 4 flowcells, 240 μl at 80 μl/min. After the antigen injection, dissociation was monitored for 600 seconds at 80 μl/min; and (3) the anti-Fc capture surface was regenerated with 10 mM glycine, pH 1.5.
(§4) The BSG2 antibody binding affinities were determined by the BIACORE technology as described in Example 1.2. Table 10 represents the antibody binding kinetics against human and cynomolgus monkey BSG2 extracellular domain (ECD).

[5] = biological target: T4, cynomolgus monkey BSG2 extracellular domain (cynomolgus monkey); test: as above
T4 construct: extracellular domain; also called Cynomolgus BSG2 ECD
Protocol: as §2, §3, §4

[6] = biological target: T2, cynomolgus monkey BSG2 on the cell …; test: cell-based ECL (MSD) binding on whole cells expressing cynomolgus BSG2
Protocol: Cells were plated at 25,000 cells/well in 25 μl PBS using 96 well MSD high binding plates (MSD, catalogue no. L11XB-3), and incubated at 37° C. for 1 hour. 25 μl/well of blocking solution (30% serum in PBS) was added to the plates for 30 minutes at room temperature with mild agitation. Plates were then incubated with 25 μl/well of BSG2 antibodies (10 μg/ml) diluted in assay buffer (10% serum in PBS) for 1 hour at room temperature with mild agitation, and then washed 3× with PBS. Goat anti-mouse or anti-human IgG sulfotag was added at 1 μg/ml for 1 hour with mild agitation, and plates were washed 3× with PBS. After the final wash, plates were incubated with 2×MSD surfactant-free read buffer (catalogue no. R92TD-2) and the signal was detected on a MSD SECTOR Imager 6000. Data were analyzed using Graphpad Prism software and EC₅₀ values were reported.
(§5) BSG2 antibody binding activities against whole cells expressing human or cynomolgus monkey BSG2 were assessed by ECL using MSD technology (described in Example 1.3) and the receptor binding assay (described in Example 1.4) and are shown in Table 11.

[7] = biological target: T1, human BSG2 (basigin isoform 2) on the …; test: receptor binding assay, Eu-labeled antibody on cells expressing human BSG2
Protocol: Cell lines expressing BSG2 were harvested and washed once in assay buffer (PBS, 0.1% BSA, 0.02% Na Azide, 10 mM EDTA) and resuspended to 5×10⁶ cells per mL. Serial 1:2 dilutions of ⁺³Eu-labeled anti-BSG2 antibody stock in assay buffer were made for final concentrations ranging from 1.6×10⁻⁸-7.7×10⁻¹² M, and a 4 mg/mL solution of unlabeled anti-BSG2 antibody was also prepared. To 96 well round bottom plates, 25 μl of ⁺³Eu-labeled antibody dilutions were added to 25 μl buffer (total counts), or 25 μl of unlabeled antibody were added to 25 μl buffer (background counts). 50 μl of cells at 2.5×10⁵ cells per well were then added to all samples, mixed gently, and incubated on ice for 1 hour. Cell bound antibody was then separated from unbound antibody by transferring 20 μL of the reaction mixture to Acrowell 96 well filter plates (Pall PN 5020), centrifuged for 5 min (2200 rpm), washed 3× with 150 μL cold assay buffer, and centrifuged for 5 min. Signal was determined by incubating samples with 150 μL/well of enhancement buffer and read using Envision. The specific counts were determined by subtracting the background counts (cells+labeled antibody+excess cold antibody) from the corresponding total counts (cells+labeled antibody) for each antibody concentration. The labeled antibody concentration versus total counts was analyzed using Graphpad Prism 4 to calculate Kd and Bmax values.
as §5

[8] = biological target: T1, human BSG2 (basigin isoform 2) on the …; test: flow cytometry (FACS) on HepG2 hepatocellular carcinoma cells (cell-surface BSG2)
Protocol: as §1

EC50 [1]: 0.2 nM
EC50 [2]: 0.71 nM
EC50 [3]: 0.4 nM
Kd [4]: 2.5 nM
koff [4]: 0.001 s⁻¹
kon [4]: 400000 M⁻¹ s⁻¹
Kd [5]: 1600 nM
koff [5]: 0.6 s⁻¹
kon [5]: 377000 M⁻¹ s⁻¹
EC50 [6]: 16 nM
Kd [7]: 0.4 nM
EC50 [8]: 0.17 nM
B1: mouse anti-human BSG2 monoclonal antibody EB41-1F4-2C1 (antibody, mouse IgG1, V domains shown)
VH: EVKLEESGGGLVQPGGSMKLSCVASGFTFSNFWMDWVRQSPEKGLEWVAEIRLKSTNYATHYAESVKGRFTISRDDSKSSVYLQMNNLRAEDTGIYYCTATSTGYWGQGTTLTVSS
VL: SIVMTQSPKILLVSAGDRVTITCKASQSVSNDVAWYQQKPGQSPKLLIYYASNRYTGVPDRFTGSGYGTDFTFTISTVQAEDLAVYFCQQDYSSPYTFGGGTKLEIK
notes: Hybridoma antibody, mouse IgG1/kappa
